Measured values from US20150148405A1, “Expression Construct for a Lin28-Resistant Let-7 Precursor MicroRNA” (THE JOHNS HOPKINS UNIVERSITY, priority 2012, published 2015).

Key:
Assay type in all cases: cell-based, mouse
TRBP = experiment: Immunoblotting for TRBP; conditions: 5 min after BDNF; +/-0.86
Protocol: (§1) Primary cultures of mouse hippocampal neurons (DIV 14 15) were incubated in serum-reduced medium (0.5% B27 supplement) for 2 hours, followed by […] Actinomycin-D for 10-20 min. Bath application of BDNF (100 ng/mL) was for designated periods (5 min-2 hours). The cultures were washed 3 times and harvested on ice with lysis buffer (50 mM Hepes, 150 mM NaCl, 10% Glycerol, 1 mM EDTA, 1% Triton-X-100, 0.2% SDS) plus freshly added protease inhibitor cocktail (Roche) and PMSF. Protein concentration was determined by Bradford Assay. If required, lysates were treated with Lambda Protein Phosphatase according to manufacturer's instructions (New England Biolabs […]). Equal amounts of lysate protein were resolved on SDS-PAGE gels, and electrotransferred to PVDF membrane. […]

Lin28a = experiment: Immunoblotting for Lin28a; conditions: mature neurons, by 5 min following BDNF exposure
Protocol: as §1

cultured neurons = experiment: 35S-labelling total protein synthesis; conditions: mock or BDNF 100 ng/mL 2 hours, Actinomycin-D
Protocol: Cultured neurons were pre-incubated in media containing reduced-serum and Actinomycin-D as previously described, followed by washing and incubation for 10 min with methionine- and cysteine-free DMEM (Mediatech, Inc.), and ^35S labeling in the same DMEM with the addition of ^355-methionine/cysteine (^35S Met/Cys EasyTag Mix, Perkin Elmer) to a final concentration of […]. Mock- or BDNF stimulation was for 2 hours. Cells were washed and lysed with lysis buffer (see immunoblotting). Lysates were centrifuged and collected supernatants subjected to Bradford assay. To assess newly synthesized proteins, 200-500 μg of lysates proteins were precipitated with 10% trichloroacetic acid (TCA) for 1 hour on ice in the presence of 0.5% deoxycholate (DOC) to remove interfering phenol red. After centrifugation, protein pellets were washed with ice-cold 95% ethanol, solubilized in denaturing buffer ([…] Tris pH 8.3, 5 mM EDTA, 0.05% SDS, 6M urea), and subjected to liquid scintillation counting (Econofluor, New England Nuclear, Inc.). ^35S Disintegration per minute (DPM) was used to quantitate protein synthesis after subtraction of background readings.

[1] = tested on: Let-7 family, miR-107, miR-143; experiment: Individual TaqMan RT-qPCR of mature miRNA levels; conditions: BDNF vs mock, normalized to 18s rRNA
Protocol: For individual microRNA abundance assays (Applied Biosystems), 100 ng of total isolated RNA was prepared for reverse transcription with stem-looped primers specific for individual mature miRNAs in a final volume of 15 μL according to manufacturer's protocol; 4° C. for 5 min, 16° C. for 30 min, 42° C. for 30 min, 85° C. for 5 min. and subjected to TaqMan MicroRNA Assays (Applied Biosystems) for Let-7a (assay ID: 000377), Let-7b (002619), Let-7e (002406), Let-7f1 (000382), miR-107 (000443) and miR-143 ([…]). RT-qPCR was performed using a Stratagene Mx3000P machine and software with quantities derived by standard-curve quantitation method. The abundance of non-coding 18s rRNA in each sample was used as an internal control to normalize all miRNA species.

B1: BDNF: brain-derived neurotrophic factor, a neurotrophin used to stimulate hippocampal neurons (protein, UniProt P23560 19-247, looked up)
Neurotrophic factor BDNF …: APMKEANIRGQGGLAYPGVRTHGTLESVNGPKAGSRGLTSLADTFEHVIEELLDEDQKVRPNEENNKDADLYTSRVMLSSQVPLEPPLLFLLEEYKNYLDAANMSMRVRRHSDPARRGELSVCDSISEWVTAADKKTAVDMSGGTVTVLEKVPVSKGQLKQYFYETKCNPMGYTKEGCRGIDKRHWNSQCRTTQSYVRALTMDSKKRIGWRFIRIDTSCVCTLTIKRGR
With B1 the “total TRBP protein levels, fold increase” value (TRBP) was 2.61 fold, the Lin28a protein (Lin28a) was “robust and rapid transcription-independent increase in Lin28a” and the “total protein synthesis (35S incorporation)” value (cultured neurons) was “modest enhancement of total translation”. The “abundance of Let-7 family members, miR-107 and miR-143” value [1] was “significant and reproducible BDNF-induced decreases in abundance”.
